Assay results from article doi:10.1101/2021.06.02.446813 (bioRxiv, 2021).

B1: antibody 5317-4 (IgG1) (antibody, V domains shown)
VH: QVQLRLWGAGLLKPSETLSLTCAVSGGSFIDYYWTWIRQPPGKGLEWIGEINHFGGSGYNPSLKSRVSISVDTSKNQFSLRLNSVTAADTAIYYCARKPLLHSSVNPGAFDIWGQGTMLTVSS
VL: EIVLTQSPGTLSLSPGERAALSCRASQSVAGTYLAWYQQKPGQAPRLLIYGASSRATGIPDRFSGSGSGTDFTLTISRLEPEDFAVYYCQQYATSPRTFGQGTQLEIR
B2: antibody 5317-10 (IgG1) (antibody, V domains shown)
VH: EVQLVQSGAEVKKPGESLTISCKASGYRFTSNWITWVRQMPGKGLEWMGRIDPDDPYSNSSPSFQGHATLSLDKAINTAYLHWSSLKASDTAMYYCARVNRVGDGPDFWGQGTLVTVSS
VL: DIVMTQSPLSLPVTPGEPASISCRSSQSLLFGNGYTYLNWYLQKPGQSPQLLIYLGSNRASGVPDRFSVSGSGTDFTLIISRVEAEDVGVYFCMQALQTPWTFGQGTKVEIK

What was measured:
[1] = target: SARS-CoV-2 RBD-SD1 (residues 306-577) (Severe acute respiratory syndrome …, UniProt P0DTC2); assay: BLI
[2] = target: SARS-CoV-2 S1 protein (Sino Biological) (SARS-CoV-2, ancestral (Wuhan-Hu-1) …, UniProt P0DTC2); assay: ELISA

| Binder | binding result [1] | binding result [2] |
| --- | --- | --- |
| B1 | binds |  |
| B2 |  | binds |
